Paper PMC10405735

Tests used:
[1] = biological target: human GPR182 (hGPR182), expressed from hGPR182 T2A GFP in 300.19 pre-B cells (human) (UniProt O15218); assay: flow cytometry on cells; competition scavenging at 37°C: 300.19 cells expressing mGPR182 or hGPR182 with 3 nM fluorescent chemokine and increasing concentrations of its unlabeled counterpart, 45 min
[2] = biological target: murine GPR182 (mGPR182), expressed from mGPR182 T2A GFP in 300.19 pre-B cells (mouse) (UniProt P43142); assay: as above
CCL20 (Mus musculus) = CCL20 (Mus musculus) (UniProt O89093); details: cited from earlier work

## hCXCL12, unlabeled (from UniProt P48061 22-93) (ligand)
[1]
  Kd (competition scavenging): 85 nM
[2]
  Kd (competition scavenging): 60 nM

## ACKR4 (from UniProt Q924I3)
CCL20 (Mus musculus)
  Kd: 800 nM
